Data as given in patent publication US20220235136A1, “METHODS AND COMPOSITIONS FOR TREATING A DISEASE OR DISORDER” (YALE UNIVERSITY, priority 2019, published 2022).

Target: T1, CD93 (Homo sapiens, UniProt Q9NPY3)
T1 construct: expressed in transfected cells; host or cells: 293 cells (CD93+ 293)
T1 sequence (Q9NPY3 22-652): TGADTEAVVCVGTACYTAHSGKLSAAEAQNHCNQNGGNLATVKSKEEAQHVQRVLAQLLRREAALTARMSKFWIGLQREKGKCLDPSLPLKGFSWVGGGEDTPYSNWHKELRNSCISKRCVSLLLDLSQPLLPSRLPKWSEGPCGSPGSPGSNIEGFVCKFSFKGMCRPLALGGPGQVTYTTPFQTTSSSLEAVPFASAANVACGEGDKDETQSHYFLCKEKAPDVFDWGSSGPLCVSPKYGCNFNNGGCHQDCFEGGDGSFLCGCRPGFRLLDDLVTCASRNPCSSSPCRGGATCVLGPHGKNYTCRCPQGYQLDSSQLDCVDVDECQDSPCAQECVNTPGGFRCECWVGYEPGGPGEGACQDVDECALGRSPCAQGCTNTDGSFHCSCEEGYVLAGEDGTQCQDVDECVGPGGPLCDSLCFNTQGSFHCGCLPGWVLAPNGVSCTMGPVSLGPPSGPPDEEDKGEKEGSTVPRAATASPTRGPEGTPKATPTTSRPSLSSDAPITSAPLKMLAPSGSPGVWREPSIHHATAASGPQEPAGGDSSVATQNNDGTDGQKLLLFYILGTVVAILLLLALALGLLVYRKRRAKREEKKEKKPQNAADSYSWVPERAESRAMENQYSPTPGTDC
Assay: binding of Ig fusion proteins to CD93 transfectant (flow cytometry)
Settings: flow cytometry
Description: FIGS. 10A-10B show identification of the binding domain on IGFBP7 for CD93. Each extracellular domain for IGFBP7, including insulin binding (IB). Kazal, and Ig, was swapped with the corresponding domain on IGFBPL1 using PCR cloning and fused to a C-terminal Ig. These chimeric mutants were transiently expressed in HEK293T cells and supernatants were used to stain CD93 transfectant. FIG. 10A depicts whether multiple chimeric IGFBP7 mutants bind to CD93. FIG. 10B depicts various human genes containing IB-domain constructed onto an expression vector containing Fc-Tag. Constructs were transiently transduced into HEK293T cells to produce Fc tagged fusion proteins in the supernatant. Supernatant was used to stain CD93 transfectant by flow cytometry. Binding index represents the ratio of binding MFI of CD93 transfectant to control cells.
The IGFBP7-IGFBPL1 chimeras were generated by two-step PCR. […]
Cell surface and intercellular staining and analysis by flow cytometry were followed the protocol previously described (71). Dead cells were excluded with SYTOX® (Blue Dead Cell Stain Kit (Thermo Fisher Scientific). Flow cytometric analysis was conducted with a BD FACS Calibur or a BD LSRFortessa™ cell analyzer (BD Bioscience, Franklin Lakes, N.J. USA), and then data were analyzed by FlowJo software (Tree Star Inc.)

B1: IGFBPL1: a IGFBP-related protein that does not bind CD93 (protein, UniProt Q8WX77 26-278, looked up)
Insulin-like growth …: LGIRDVGGRRPKCGPCRPEGCPAPAPCPAPGISALDECGCCARCLGAEGASCGGRAGGRCGPGLVCASQAAGAAPEGTGLCVCAQRGTVCGSDGRSYPSVCALRLRARHTPRAHPGHLHKARDGPCEFAPVVVVPPRSVHNVTGAQVGLSCEVRAVPTPVITWRKVTKSPEGTQALEELPGDHVNIAVQVRGGPSDHEATAWILINPLRKEDEGVYQCHAANMVGEAESHSTVTVLDLSKYRSFHFPAPDDRM
binding to CD93 293 cells / CD93 transfectant: does not bind
